Source: article PMC2966277 (Cell, 2010)
One block for each binder: values may come before it.

Assays:
microtubules = microtubules (UniProt Q6B856 1-445); test: co-sedimentation
[1] = biological target: T1, GFP-PRC1-FL (GFP-tagged full-length PRC1, aa 1-620) (human), O43663; test: single-molecule fluorescence intensity analysis; conditions: remark: other sources report otherwise
T1 chain: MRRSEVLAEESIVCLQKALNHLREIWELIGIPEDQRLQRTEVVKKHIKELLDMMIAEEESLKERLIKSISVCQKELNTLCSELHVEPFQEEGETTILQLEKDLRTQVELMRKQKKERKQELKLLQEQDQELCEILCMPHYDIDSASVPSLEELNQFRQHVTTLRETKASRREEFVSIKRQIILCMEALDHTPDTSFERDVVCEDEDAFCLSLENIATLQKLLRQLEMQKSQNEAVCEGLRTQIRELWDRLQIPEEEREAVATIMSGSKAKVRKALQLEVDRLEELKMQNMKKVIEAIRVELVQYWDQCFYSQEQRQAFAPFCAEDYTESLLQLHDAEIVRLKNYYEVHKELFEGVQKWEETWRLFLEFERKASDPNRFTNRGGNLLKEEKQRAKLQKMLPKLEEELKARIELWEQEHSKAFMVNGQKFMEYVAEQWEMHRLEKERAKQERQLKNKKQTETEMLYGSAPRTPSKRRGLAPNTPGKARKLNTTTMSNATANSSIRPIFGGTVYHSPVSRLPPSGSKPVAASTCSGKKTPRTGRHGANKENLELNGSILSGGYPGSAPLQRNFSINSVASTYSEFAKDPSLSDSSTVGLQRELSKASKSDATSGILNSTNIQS

[2] = biological target: T2, PRC1-FL (untagged full-length PRC1) (human), O43663; conditions: remark: other sources report otherwise
T2 chain: T1 chain

SEC-MALS = biological target: the molecule itself; test: SEC-MALS

stoichiometry N [1]: 2
B2: GFP-PRC1-FL (GFP-tagged full-length PRC1, aa 1-620), O43663 1-620 (natural protein)
chain: T1 chain

stoichiometry N [2]: 2
B3: PRC1-FL (untagged full-length PRC1), O43663 1-620 (natural protein)
chain: T1 chain

Kd (microtubules): 3.3 ± 1.8 µM
B4: PRC1-S (aa 341-466) (domain or fragment, human, UniProt O43663 341-466, looked up)
chain: LKNYYEVHKELFEGVQKWEETWRLFLEFERKASDPNRFTNRGGNLLKEEKQRAKLQKMLPKLEEELKARIELWEQEHSKAFMVNGQKFMEYVAEQWEMHRLEKERAKQERQLKNKKQTETEMLYGS

Second part, the binder before the results:

B1: PRC1-SC (aa 341-620) (domain or fragment, human, UniProt O43663 341-620, looked up)
chain: LKNYYEVHKELFEGVQKWEETWRLFLEFERKASDPNRFTNRGGNLLKEEKQRAKLQKMLPKLEEELKARIELWEQEHSKAFMVNGQKFMEYVAEQWEMHRLEKERAKQERQLKNKKQTETEMLYGSAPRTPSKRRGLAPNTPGKARKLNTTTMSNATANSSIRPIFGGTVYHSPVSRLPPSGSKPVAASTCSGKKTPRTGRHGANKENLELNGSILSGGYPGSAPLQRNFSINSVASTYSEFAKDPSLSDSSTVGLQRELSKASKSDATSGILNSTNIQS
Kd (microtubules): 0.6 ± 0.3 µM

B5: PRC1-NSΔC (aa 1-486) (domain or fragment, human, UniProt O43663 1-486, looked up)
chain: MRRSEVLAEESIVCLQKALNHLREIWELIGIPEDQRLQRTEVVKKHIKELLDMMIAEEESLKERLIKSISVCQKELNTLCSELHVEPFQEEGETTILQLEKDLRTQVELMRKQKKERKQELKLLQEQDQELCEILCMPHYDIDSASVPSLEELNQFRQHVTTLRETKASRREEFVSIKRQIILCMEALDHTPDTSFERDVVCEDEDAFCLSLENIATLQKLLRQLEMQKSQNEAVCEGLRTQIRELWDRLQIPEEEREAVATIMSGSKAKVRKALQLEVDRLEELKMQNMKKVIEAIRVELVQYWDQCFYSQEQRQAFAPFCAEDYTESLLQLHDAEIVRLKNYYEVHKELFEGVQKWEETWRLFLEFERKASDPNRFTNRGGNLLKEEKQRAKLQKMLPKLEEELKARIELWEQEHSKAFMVNGQKFMEYVAEQWEMHRLEKERAKQERQLKNKKQTETEMLYGSAPRTPSKRRGLAPNTPGKAR
stoichiometry N (SEC-MALS): 2
